Measured values published in US8026218 (UNIVERSITY OF ARIZONA, dated 2011).
Square brackets hold non-standard residues; d marks the D form. Ends that are not written are not given here. * marks the point of attachment. O‑Bzl(CF3)2 = C-terminal bis(trifluoromethyl)benzyl ester; NH(3,5-(CF3)2-benzyl) = FC(F)(F)c1cc(CN*)cc(C(F)(F)F)c1; OBzl(3,5-(CF3)2) = FC(F)(F)c1cc(CO*)cc(C(F)(F)F)c1; βAla = NCCC(=O)O

Legend:
[1] = molecular target: T1, human δ opioid receptor (human, UniProt P41143 1-372); experiment: cell-based or functional assay
T1 sequence (P41143 whole entry, stated change not applied): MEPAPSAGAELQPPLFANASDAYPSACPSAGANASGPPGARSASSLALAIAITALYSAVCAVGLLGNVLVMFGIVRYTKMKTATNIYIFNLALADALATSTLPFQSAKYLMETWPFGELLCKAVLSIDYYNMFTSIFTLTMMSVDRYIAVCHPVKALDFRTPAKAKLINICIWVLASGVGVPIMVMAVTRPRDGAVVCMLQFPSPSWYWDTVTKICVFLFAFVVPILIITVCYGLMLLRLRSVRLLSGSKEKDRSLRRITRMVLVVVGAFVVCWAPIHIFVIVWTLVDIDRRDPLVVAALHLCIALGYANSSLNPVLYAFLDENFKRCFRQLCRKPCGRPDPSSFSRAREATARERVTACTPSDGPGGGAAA

[2] = molecular target: T2, rat µ opioid receptor (rat, UniProt P33535 1-398); experiment: cell-based or functional assay
[3] = molecular target: T3, rat NK1 receptor (rat, UniProt P14600 1-407); experiment: competition vs [3H]Substance P, rNK1 CHO cell membranes
T3 construct: whole, on cells; membrane preparations of the transfected cells were used; also called rNK1; rNK-1
T3 sequence (P14600 whole entry): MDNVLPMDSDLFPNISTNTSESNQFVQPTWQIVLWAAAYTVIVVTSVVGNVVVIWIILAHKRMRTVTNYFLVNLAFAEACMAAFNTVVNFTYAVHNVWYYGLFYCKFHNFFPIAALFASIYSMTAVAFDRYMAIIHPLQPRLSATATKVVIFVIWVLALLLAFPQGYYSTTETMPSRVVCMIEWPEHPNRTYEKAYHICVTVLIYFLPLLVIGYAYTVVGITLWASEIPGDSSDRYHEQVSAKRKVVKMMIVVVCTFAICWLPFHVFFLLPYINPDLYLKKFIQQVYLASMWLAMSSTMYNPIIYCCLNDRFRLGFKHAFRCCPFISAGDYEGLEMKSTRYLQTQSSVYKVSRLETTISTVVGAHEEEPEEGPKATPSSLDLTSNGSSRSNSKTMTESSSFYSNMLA

[4] = molecular target: T2, rat µ opioid receptor; experiment: competition vs [3H]DAMGO, rMOR cell membranes
[5] = molecular target: T4, human NK1 receptor (human, UniProt P25103 1-407); experiment: competition vs [3H]substance P, membranes of hNK1-transfected CHO cells
T4 construct: whole, on cells; Assayed as membrane preparations of transfected CHO cells; also called hNK1; human neurokinin-1 receptor
T4 sequence (P25103 whole entry): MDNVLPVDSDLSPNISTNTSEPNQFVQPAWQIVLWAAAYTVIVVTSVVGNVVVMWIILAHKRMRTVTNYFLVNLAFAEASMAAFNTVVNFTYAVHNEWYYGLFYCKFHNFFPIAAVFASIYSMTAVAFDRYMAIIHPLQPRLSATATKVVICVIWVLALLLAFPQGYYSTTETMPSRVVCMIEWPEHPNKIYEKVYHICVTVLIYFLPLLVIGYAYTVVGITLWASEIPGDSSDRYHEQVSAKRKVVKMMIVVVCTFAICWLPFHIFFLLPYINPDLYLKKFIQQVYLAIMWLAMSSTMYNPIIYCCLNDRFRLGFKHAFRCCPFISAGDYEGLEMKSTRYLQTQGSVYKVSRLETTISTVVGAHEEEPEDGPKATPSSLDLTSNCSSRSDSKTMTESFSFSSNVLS

[6] = molecular target: T5, rat NK1 receptor (rat, UniProt P14600 1-407); experiment: competition vs [3H]substance P, membranes of rNK1-transfected CHO cells
T5 construct: whole, on cells; Assayed as membrane preparations of transfected CHO cells; also called rNK1; rNK-1
T5 sequence (P14600 whole entry): as the sequence (P14600 whole entry) above

[7] = molecular target: T6, human NK1 receptor (human, UniProt P25103 1-407); experiment: competition vs [3H]Substance P, hNK1 CHO cell membranes
T6 construct: whole, on cells; membrane preparations of the transfected cells were used; also called hNK1; human neurokinin-1 receptor
T6 sequence (P25103 whole entry): as the sequence (P25103 whole entry) above

[8] = molecular target: T1, human δ opioid receptor; experiment: competition vs [3H]DPDPE, hDOR cell membranes
[9] = molecular target: T7, human δ opioid receptor (human, UniProt P41143 1-372); experiment: cell-based or functional assay; remark: listed apart in the source
T7 sequence (P41143 whole entry, stated change not applied): as the sequence (P41143 whole entry, stated change not applied) above

[10] = molecular target: T7, human δ opioid receptor; experiment: competition vs [3H]DPDPE, membranes of hDOR-transfected HN9.10 cells
[11] = molecular target: µ opioid receptor of the guinea pig isolated ileum (guinea pig); experiment: cell-based or functional assay
[12] = molecular target: guinea pig NK1 receptor (guinea pig, UniProt P30547 1-407); experiment: cell-based or functional assay
Sequence of guinea pig NK1 receptor (P30547 whole entry): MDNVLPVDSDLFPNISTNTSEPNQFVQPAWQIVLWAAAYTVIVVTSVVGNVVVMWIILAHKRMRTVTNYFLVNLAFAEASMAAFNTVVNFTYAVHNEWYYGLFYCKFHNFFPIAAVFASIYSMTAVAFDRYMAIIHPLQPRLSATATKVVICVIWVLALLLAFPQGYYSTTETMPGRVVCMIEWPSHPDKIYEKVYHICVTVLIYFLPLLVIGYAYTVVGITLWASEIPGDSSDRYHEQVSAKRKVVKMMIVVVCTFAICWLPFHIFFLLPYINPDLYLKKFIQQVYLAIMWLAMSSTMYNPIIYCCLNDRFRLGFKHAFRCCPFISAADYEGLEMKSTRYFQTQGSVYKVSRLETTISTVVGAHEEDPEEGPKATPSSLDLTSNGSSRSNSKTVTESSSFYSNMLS

T2 sequence (P33535 whole entry): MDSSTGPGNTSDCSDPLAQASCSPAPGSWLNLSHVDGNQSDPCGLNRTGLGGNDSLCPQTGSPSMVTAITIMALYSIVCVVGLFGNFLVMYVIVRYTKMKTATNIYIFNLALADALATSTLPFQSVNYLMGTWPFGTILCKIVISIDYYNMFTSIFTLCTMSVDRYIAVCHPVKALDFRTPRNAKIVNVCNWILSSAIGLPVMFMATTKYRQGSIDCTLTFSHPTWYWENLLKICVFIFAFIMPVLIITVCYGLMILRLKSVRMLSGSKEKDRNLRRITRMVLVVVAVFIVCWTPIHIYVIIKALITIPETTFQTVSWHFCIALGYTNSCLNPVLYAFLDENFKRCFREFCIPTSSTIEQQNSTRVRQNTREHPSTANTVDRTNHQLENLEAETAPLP

Binder	GTP EMax [1]	GTP EMax [2]	Ki [3] [nM]	Ki [4] [nM]	Ki [7] [nM]	Ki [8] [nM]	further results
Y[dA]GF[βAla]W-{O‑Bzl(CF3)2} (also called NP32) [Tyr-DAla-Gly-Phe-β-Ala-Trp-O-Bzl(CF3)2]	87	70	1.6	11.2	–	–	–
H-Y[dA]GFPLW-{NMe‑Bn(CF3)2} (also: TFA salt, TFA salt; also called TY013) [H-Tyr-D-Ala-Gly-Phe-Pro-Leu-Trp-NMe-3,5-Bzl(CF3)2]	–	–	–	–	–	–	LogIC50 [5]: -8.5; Ki [6]: 6.1 nM
Y[dA]GFGW-{O‑Bzl(CF3)2} [Tyr-DAla-Gly-Phe-Gly-Trp-O-Bzl(CF3)2]	87	36	–	–	–	–	–
Y[dA]GF[dA]W-{O‑Bzl(CF3)2} (also called NP40) [Tyr-DAla-Gly-Phe-D-Ala-Trp-O-Bzl(CF3)2]	89	19	2.4	2.8	0.011	3.9	–
Y[dA]GFLW-{O‑Bzl(CF3)2} (also called NP37) [Tyr-DAla-Gly-Phe-Leu-Trp-O-Bzl(CF3)2]	60	54	0.29	23.3	0.09	2.9	–
Y[dA]GFMW-{O‑Bzl(CF3)2} (also called NP38) [Tyr-DAla-Gly-Phe-Met-Trp-O-Bzl(CF3)2]	36	51	0.089	3.3	0.009	0.6	–
Y[dA]GFPW-{O‑Bzl(CF3)2} (also called NP39) [Tyr-DAla-Gly-Phe-Pro-Trp-O-Bzl(CF3)2]	56	47	1.6	14.8	0.1	–	–
Y[dA]GFAW-{O‑Bzl(CF3)2} (also called NP31) [Tyr-DAla-Gly-Phe-Ala-Trp-O-Bzl(CF3)2]	91	50	8.6	3.6	–	1.2	–
YAGFXPLW (D-Ala at 2; Nle (norleucine, written X) at 5; C-terminal 3,5-bis(trifluoromethyl)benzyl ester, TFA salt; also called TY018) [H-Tyr-D-Ala-Gly-Phe-Nle-Pro-Leu-Trp-O-3,5-Bzl(CF3)2]	–	–	–	–	–	–	[35S]GTP-γ-S binding EC50 [9]: 4 nM; [35S]GTP-γ-S binding Emax [9]: 129%; [35S]GTP-γ-S binding LogEC50 [9]: -8.4; Ki [10]: 1.8 nM; LogIC50 [10]: -8.42; GPI (µ) opioid agonist IC50 [11]: 372 nM; Substance P GPI antagonist Ke [12]: 7.9 nM
H-Y[dA]GFPLW-{OBzl(3,5-(CF3)2)} (also: TFA salt, TFA salt; also called TY001) [H-Tyr-DAla-Gly-Phe-Pro-Leu-Trp-O-3,5-Bzl(CF3)2]	–	–	–	–	–	–	Ki [5]: 0.0023 nM; LogIC50 [5]: -11.3; Ki [6]: 1.6 nM; LogIC50 [6]: -8.3
H-Y[dA]GFPLW-{NH(3,5-(CF3)2-benzyl)} (also: TFA salt, TFA salt; also called TY012) [H-Tyr-D-Ala-Gly-Phe-Pro-Leu-Trp-NH-3,5-Bzl(CF3)2]	–	–	–	–	–	–	Ki [5]: 0.61 nM; Ki [6]: 33 nM; LogIC50 [6]: -7
